B1: EGFP–ARS2 wt [human] / ZFC3H1 [human (endogenous in HEK 293T/17)] (parent complex)
chain 1: MGDSDDEYDRRRRDKFRRERSDYDRSRERDERRRGDDWNDREWDRGRERRSRGEYRDYDRNRRERFSPPRHELSPPQKRMRRDWDEHSSDPYHSGYEMPYAGGGGGPTYGPPQPWGHPDVHIMQHHVLPIQARLGSIAEIDLGVPPPVMKTFKEFLLSLDDSVDETEAVKRYNDYKLDFRRQQMQDFFLAHKDEEWFRSKYHPDEVGKRRQEARGALQNRLRVFLSLMETGWFDNLLLDIDKADAIVKMLDAAVIKMEGGTENDLRILEQEEEEEQAGKPGEPSKKEEGRAGAGLGDGERKTNDKDEKKEDGKQAENDSSNDDKTKKSEGDGDKEEKKEDSEKEAKKSSKKRNRKHSGDDSFDEGSVSESESESESGQAEEEKEEAEALKEKEKPKEEEWEKPKDAAGLECKPRPLHKTCSLFMRNIAPNISRAEIISLCKRYPGFMRVALSEPQPERRFFRRGWVTFDRSVNIKEICWNLQNIRLRECELSPGVNRDLTRRVRNINGITQHKQIVRNDIKLAAKLIHTLDDRTQLWASEPGTPPLPTSLPSQNPILKNITDYLIEEVSAEEEELLGSSGGAPPEEPPKEGNPAEINVERDEKLIKVLDKLLLYLRIVHSLDYYNTCEYPNEDEMPNRCGIIHVRGPMPPNRISHGEVLEWQKTFEEKLTPLLSVRESLSEEEAQKMGRKDPEQEVEKFVTSNTQELGKDKWLCPLSGKKFKGPEFVRKHIFNKHAEKIEEVKKEVAFFNNFLTDAKRPALPEIKPAQPPGPAQSLTPGLPYPHQTPQGLMPYGQPRPPILGYGAGAVRPAVPTGGPPYPHAPYGAGRGNYDAFRGQGGYPGKPRNRMVRGDPRAIVEYRDLDAPDDVDFF
chain 2: MATADTPAPASSGLSPKEEGELEDGEISDDDNNSQIRSRSSSSSSGGGLLPYPRRRPPHSARGGGSGGGGGSSSSSSSSQQQLRNFSRSRHASERGHLRGPSSYRPKEPFRSHPPSVRMPSSSLSESSPRPSFWERSHLALDRFRFRGRPYRGGSRWSRGRGVGERGGKPGCRPPLGGGAGSGFSSSQSWREPSPPRKSSKSFGRSPSRKQNYSSKNENCVEETFEDLLLKYKQIQLELECINKDEKLALSSKEENVQEDPKTLNFEDQTSTDNVSITKDSSKEVAPEEKTQVKTFQAFELKPLRQKLTLPGDKNRLKKVKDGAKPLSLKSDTTDSSQGLQDKEQNLTRRISTSDILSEKKLGEDEEELSELQLRLLALQSASKKWQQKEQQVMKESKEKLTKTKTVQQKVKTSTKTHSAKKVSTTAKQALRKQQTKAWKKLQQQKEQERQKEEDQRKQAEEEERRKREEEIRKIRDLSNQEEQYNRFMKLVGGKRRSRSKSSDPDLRRSLDKQPTDSGGGIYQYDNYEEVAMDTDSETSSPAPSPVQPPFFSECSLGYFSPAPSLSLPPPPQVSSLPPLSQPYVEGLCVSLEPLPPLPPLPPLPPEDPEQPPKPPFADEEEEEEMLLREELLKSLANKRAFKPEETSSNSDPPSPPVLNNSHPVPRSNLSIVSINTVSQPRIQNPKFHRGPRLPRTVISLPKHKSVVVTLNDSDDSESDGEASKSTNSVFGGLESMIKEARRTAEQASKPKVPPKSEKENDPLRTPEALPEEKKIEYRLLKEEIANREKQRLIKSDQLKTSSSSPANSDVEIDGIGRIAMVTKQVTDAESKLKKHRILLMKDESVLKNLVQQEAKKKESVRNAEAKITKLTEQLQATEKILNVNRMFLKKLQEQIHRVQQRVTIKKALTLKYGEELARAKAVASKEIGKRKLEQDRFGPNKMMRLDSSPVSSPRKHSAELIAMEKRRLQKLEYEYALKIQKLKEARALKAKEQQNISPVVEEEPEFSLPQPSLHDLTQDKLTLDTEENDVDDEILSGSSRERRRSFLESNYFTKPNLKHTDTANKECINKLNKNTVEKPELFLGLKIGELQKLYSKADSLKQLILKTTTGITEKVLHGQEISVDVDFVTAQSKTMEVKPCPFRPYHSPLLVFKSYRFSPYYRTKEKLPLSSVSYSNMIEPDQCFCRFDLTGTCNDDDCQWQHIQDYTLSRKQLFQDILSYNLSLIGCAETSTNEEITASAEKYVEKLFGVNKDRMSMDQMAVLLVSNINESKGHTPPFTTYKDKRKWKPKFWRKPISDNSFSSDEEQSTGPIKYAFQPENQINVPALDTVVTPDDVRYFTNETDDIANLEASVLENPSHVQLWLKLAYKYLNQNEGECSESLDSALNVLARALENNKDNPEIWCHYLRLFSKRGTKDEVQEMCETAVEYAPDYQSFWTFLHLESTFEEKDYVCERMLEFLMGAAKQETSNILSFQLLEALLFRVQLHIFTGRCQSALAILQNALKSANDGIVAEYLKTSDRCLAWLAYIHLIEFNILPSKFYDPSNDNPSRIVNTESFVMPWQAVQDVKTNPDMLLAVFEDAVKACTDESLAVEERIEACLPLYTNMIALHQLLERYEAAMELCKSLLESCPINCQLLEALVALYLQTNQHDKARAVWLTAFEKNPQNAEVFYHMCKFFILQNRGDNLLPFLRKFIASFFKPGFEKYNNLDLFRYLLNIPGPIDIPSRLCKGNFDDDMFNHQVPYLWLIYCLCHPLQSSIKETVEAYEAALGVAMRCDIVQKIWMDYLVFANNRAAGSRNKVQEFKFFTDLVNRCLVTVPARYPIPFSSADYWSNYEFHNRVIFFYLSCVPKTQHSKTLERFCSVMPANSGLALRLLQHEWEESNVQILKLQAKMFTYNIPTCLATWKIAIAAEIVLKGQREVHRLYQRALQKLPLCASLWKDQLLFEASEGGKTDNLRKLVSKCQEIGVSLNELLNLNSNKTESKNH
B2: EGFP–ARS2 wt [human] / RBM7 [human (endogenous in HEK 293T/17)] (parent complex)
chain 1: B1 chain 1
chain 2: MGAAAAEADRTLFVGNLETKVTEELLFELFHQAGPVIKVKIPKDKDGKPKQFAFVNFKHEVSVPYAMNLLNGIKLYGRPIKIQFRSGSSHAPQDVSLSYPQHHVGNSSPTSTSPSRYERTMDNMTSSAQIIQRSFSSPENFQRQAVMNSALRQMSYGGKFGSSPLDQSGFSPSVQSHSHSFNQSSSSQWRQGTPSSQRKVRMNSYPYLADRHYSREQRYTDHGSDHHYRGKRDDFFYEDRNHDDWSHDYDNRRDSSRDGKWRSSRH
B3: EGFP–ARS2 wt [human] / ZCCHC8 [human (endogenous in HEK 293T/17)] (parent complex)
chain 1: B1 chain 1
chain 2: MAAEVYFGDLELFEPFDHPEESIPKPVHTRFKDDDGDEEDENGVGDAELRERLRQCEETIEQLRAENQELKRKLNILTRPSGILVNDTKLDGPILQILFMNNAISKQYHQEIEEFVSNLVKRFEEQQKNDVEKTSFNLLPQPSSIVLEEDHKVEESCAIKNNKEAFSVVGSVLYFTNFCLDKLGQPLLNENPQLSEGWEIPKYHQVFSHIVSLEGQEIQVKAKRPKPHCFNCGSEEHQMKDCPMPRNAARISEKRKEYMDACGEANNQNFQQRYHAEEVEERFGRFKPGVISEELQDALGVTDKSLPPFIYRMRQLGYPPGWLKEAELENSGLALYDGKDGTDGETEVGEIQQNKSVTYDLSKLVNYPGFNISTPRGIPDEWRIFGSIPMQACQQKDVFANYLTSNFQAPGVKSGNKRSSSHSSPGSPKKQKNESNSAGSPADMELDSDMEVPHGSQSSESFQFQPPLPPDTPPLPRGTPPPVFTPPLPKGTPPLTPSDSPQTRTASGAVDEDALTLEELEEQQRRIWAALEQAESVNSDSDVPVDTPLTGNSVASSPCPNELDLPVPEGKTSEKQTLDEPEVPEIFTKKSEAGHASSPDSEVTSLCQKEKAELAPVNTEGALLDNGSVVPNCDISNGGSQKLFPADTSPSTATKIHSPIPDMSKFATGITPFEFENMAESTGMYLRIRSLLKNSPRNQQKNKKASE
B4: EGFP–ARS2 wt [human] / hMTR4 [human (endogenous in HEK 293T/17)] (parent complex)
chain 1: B1 chain 1
chain 2: MADAFGDELFSVFEGDSTTAAGTKKDKEKDKGKWKGPPGSADKAGKRFDGKLQSESTNNGKNKRDVDFEGTDEPIFGKKPRIEESITEDLSLADLMPRVKVQSVETVEGCTHEVALPAEEDYLPLKPRVGKAAKEYPFILDAFQREAIQCVDNNQSVLVSAHTSAGKTVCAEYAIALALREKQRVIFTSPIKALSNQKYREMYEEFQDVGLMTGDVTINPTASCLVMTTEILRSMLYRGSEVMREVAWVIFDEIHYMRDSERGVVWEETIILLPDNVHYVFLSATIPNARQFAEWICHLHKQPCHVIYTDYRPTPLQHYIFPAGGDGLHLVVDENGDFREDNFNTAMQVLRDAGDLAKGDQKGRKGGTKGPSNVFKIVKMIMERNFQPVIIFSFSKKDCEAYALQMTKLDFNTDEEKKMVEEVFSNAIDCLSDEDKKLPQVEHVLPLLKRGIGIHHGGLLPILKETIEILFSEGLIKALFATETFAMGINMPARTVLFTNARKFDGKDFRWISSGEYIQMSGRAGRRGMDDRGIVILMVDEKMSPTIGKQLLKGSADPLNSAFHLTYNMVLNLLRVEEINPEYMLEKSFYQFQHYRAIPGVVEKVKNSEEQYNKIVIPNEESVVIYYKIRQQLAKLGKEIEEYIHKPKYCLPFLQPGRLVKVKNEGDDFGWGVVVNFSKKSNVKPNSGELDPLYVVEVLLRCSKESLKNSATEAAKPAKPDEKGEMQVVPVLVHLLSAISSVRLYIPKDLRPVDNRQSVLKSIQEVQKRFPDGIPLLDPIDDMGIQDQGLKKVIQKVEAFEHRMYSHPLHNDPNLETVYTLCEKKAQIAIDIKSAKRELKKARTVLQMDELKCRKRVLRRLGFATSSDVIEMKGRVACEISSADELLLTEMMFNGLFNDLSAEQATALLSCFVFQENSSEMPKLTEQLAGPLRQMQECAKRIAKVSAEAKLEIDEETYLSSFKPHLMDVVYTWATGATFAHICKMTDVFEGSIIRCMRRLEELLRQMCQAAKAIGNTELENKFAEGITKIKRDIVFAASLYL
B5: EGFP–ARS2 wt [human] / NCBP3 (endogenous) [human (endogenous in HEK 293T/17)] (parent complex)
chain 1: B1 chain 1
chain 2: MAAVRGLRVSVKAEAPAGPALGLPSPEAESGVDRGEPEPMEVEEGELEIVPVRRSLKELIPDTSRRYENKAGSFITGIDVTSKEAIEKKEQRAKRFHFRSEVNLAQRNVALDRDMMKKAIPKVRLETIYICGVDEMSTQDVFSYFKEYPPAHIEWLDDTSCNVVWLDEMTATRALINMSSLPAQDKIRSRDASEDKSAEKRKKDKQEDSSDDDEAEEGEVEDENSSDVELDTLSQVEEESLLRNDLRPANKLAKGNRLFMRFATKDDKKELGAARRSQYYMKYGNPNYGGMKGILSNSWKRRYHSRRIQRDVIKKRALIGDDVGLTSYKHRHSGLVNVPEEPIEEEEEEEEEEEEEEEEDQDMDADDRVVVEYHEELPALKQPRERSASRRSSASSSDSDEMDYDLELKMISTPSPKKSMKMTMYADEVESQLKNIRNSMRADSVSSSNIKNRIGNKLPPEKFADVRHLLDEKRQHSRPRPPVSSTKSDIRQRLGKRPHSPEKAFSSNPVVRREPSSDVHSRLGVPRQDSKGLYADTREKKSGNLWTRLGSAPKTKEKNTKKVDHRAPGAEEDDSELQRAWGALIKEKEQSRQKKSRLDNLPSLQIEVSRESSSGSEAES

Variants of: B1
Assay: EGFP pull down, LC–MS/MS (AP–MS, TMT labelled); HEK 293T/17 cells; three independent affinity purifications per bait; read off a plot

screen value	Variant
~-2.8	chain 1 K719A, chain 1 K722A, chain 1 K734A

Variants of: B2
Assay: as above

screen value	Variant
~-1.8	chain 1 K719A, chain 1 K722A, chain 1 K734A

Variants of: B3
Assay: as above

screen value	Variant
~-1.7	chain 1 K719A, chain 1 K722A, chain 1 K734A

Variants of: B4
Assay: as above

screen value	Variant
~-2.7	chain 1 K719A, chain 1 K722A, chain 1 K734A

Variants of: B5
Assay: as above

screen value	Variant
~-3.1	chain 1 K719A, chain 1 K722A, chain 1 K734A

Reference: publication PMC5923425, “Structural analysis of human ARS2 as a platform for co-transcriptional RNA sorting” (Nature Communications, 2018)
